In the series the target is SpCas9 nuclease (Streptococcus pyogenes) (UniProt Q99ZW2). The series can be described thus: EMSA. The note with it: 30 nM Cas9, 30 nM RNA, NEBuffer 3.1, 25 C then 37 C; negative control. In general terms: Mobility shift assays separate free from complexed probe on a gel.
Sequence of UniProt Q99ZW2 (Q99ZW2 whole entry): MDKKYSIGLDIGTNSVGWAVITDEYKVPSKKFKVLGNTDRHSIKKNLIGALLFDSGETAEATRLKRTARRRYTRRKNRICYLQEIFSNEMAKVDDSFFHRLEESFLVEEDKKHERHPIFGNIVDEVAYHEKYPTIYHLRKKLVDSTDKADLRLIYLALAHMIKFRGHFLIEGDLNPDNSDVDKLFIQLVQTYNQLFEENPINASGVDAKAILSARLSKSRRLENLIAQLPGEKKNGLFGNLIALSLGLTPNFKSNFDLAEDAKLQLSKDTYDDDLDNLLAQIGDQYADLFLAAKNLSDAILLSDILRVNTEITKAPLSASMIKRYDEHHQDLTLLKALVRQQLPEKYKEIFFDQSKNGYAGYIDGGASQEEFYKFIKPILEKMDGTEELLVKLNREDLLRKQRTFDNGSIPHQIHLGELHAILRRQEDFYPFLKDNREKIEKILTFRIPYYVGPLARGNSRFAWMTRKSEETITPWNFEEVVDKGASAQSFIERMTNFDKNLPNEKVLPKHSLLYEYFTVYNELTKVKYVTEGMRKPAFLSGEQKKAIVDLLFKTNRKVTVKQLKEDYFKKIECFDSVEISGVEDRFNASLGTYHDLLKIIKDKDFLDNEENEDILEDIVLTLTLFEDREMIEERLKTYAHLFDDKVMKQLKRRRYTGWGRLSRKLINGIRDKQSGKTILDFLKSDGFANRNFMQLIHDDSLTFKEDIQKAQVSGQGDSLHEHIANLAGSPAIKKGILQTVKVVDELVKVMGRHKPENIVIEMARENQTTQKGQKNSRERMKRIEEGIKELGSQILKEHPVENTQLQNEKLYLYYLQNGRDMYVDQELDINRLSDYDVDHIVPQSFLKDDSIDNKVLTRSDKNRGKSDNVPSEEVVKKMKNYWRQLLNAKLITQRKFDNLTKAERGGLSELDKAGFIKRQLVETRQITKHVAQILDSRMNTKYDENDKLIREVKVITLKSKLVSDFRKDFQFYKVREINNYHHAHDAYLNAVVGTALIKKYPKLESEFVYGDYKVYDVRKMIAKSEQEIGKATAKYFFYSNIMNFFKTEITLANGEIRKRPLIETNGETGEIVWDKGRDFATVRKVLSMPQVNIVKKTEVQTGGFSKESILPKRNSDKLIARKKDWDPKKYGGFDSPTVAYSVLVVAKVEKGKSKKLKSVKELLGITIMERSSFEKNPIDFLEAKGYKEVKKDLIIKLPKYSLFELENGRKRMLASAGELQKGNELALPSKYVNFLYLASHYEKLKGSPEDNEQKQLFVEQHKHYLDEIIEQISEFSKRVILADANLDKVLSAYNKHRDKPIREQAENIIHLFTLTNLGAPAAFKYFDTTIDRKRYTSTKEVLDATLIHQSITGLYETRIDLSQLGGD

For “non-CRISPR structured RNA negative control”, the binding signal was 55 % bound.

The values above are taken from US20220290132.
